From patent publication US11505576B2, “Polypeptides based on a scaffold” (AFFIBODY AB, priority 2018, dated 2022)
pKd: −log10 of the molar value. “Also recorded” adds a separate entry of the source.

Assays:
[1] = Circular dichroism spectroscopy analysis (CD spectra, variable temperature measurement, refolding); format: physicochemical
Protocol: The respective Y variant was diluted to 0.5 mg/ml in PBS. A CD spectrum at 250-195 nm was obtained at 20° C. In addition, a variable temperature measurement (VTM) was performed to determine the melting temperature (Tm). In the VTM, absorbance was measured at 221 nm while the temperature was raised from 20° C. to 90° C. with a temperature gradient of 5° C./min. A new CD spectrum was obtained at 20° C. after the heating procedure, in order to study the refolding ability of the Y variants. The CD measurements were performed on a Jasco J-810 spectropolarimeter (Jasco Scandinavia AB) using a cell with an optical path length of 1 mm.
(§1) Produced Y variants were subjected to CD and SPR analyses according to the methods described in Example 1.
(§2) The Y variants were cloned, produced and characterized according to the general methods described in Example 1. Produced Y variants with point mutations and/or N-terminal or C-terminal extensions were subjected to CD and SPR analyses as described in Example 1.
(§3) Produced Y variants were subjected to CD and SPR analyses according to the methods described in Example 1. In addition, CD spectra of selected IL-6 binding variants were also recorded at 60, 70, 80 and 90° C.
(§4) The Y variants were cloned, produced and characterized according to the general methods described in Example 1. Produced Y variants with point mutations were subjected to CD and SPR analyses as described in Example 1. In addition, CD spectra of the IL-6 binding variants were also recorded at 60, 70, 80 and 90° C.

insulin = target: T1, insulin (Homo sapiens, UniProt P01308); test: Kinetic analysis using surface plasmon resonance (Biacore T200), immobilized insulin; format: binding
T1 construct: purchased Roche 1376497
T1 sequence (P01308 25-54 limits assumed): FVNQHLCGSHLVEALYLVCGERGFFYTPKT
T1 sequence (P01308 90-110 limits assumed): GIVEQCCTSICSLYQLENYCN
Protocol: Kinetic constants (ka and kd) and affinities (KD) were determined for His6-tagged Y variants using a Biacore T200 instrument (GE Healthcare). Target proteins C4, IL-6 and insulin, respectively, were immobilized in separate flow cells on the carboxylated dextran layer of different CM5 chip surfaces (GE Healthcare). Immobilization was performed using amine coupling chemistry according to the manufacturer's protocol and PBS pH 7.4 supplemented with 0.1 Tween20 (PBST 0.1%) as running buffer. The ligand immobilization levels on the surfaces were 3280-8830 RU for C4, 495-1184 RU for IL-6, and 270-282 RU for insulin. One flow cell surface on each chip was activated and deactivated for use as blank during analyte injections. In the kinetic experiment, PBST 0.1% was used as running buffer at a flow rate of 30 μl/min. The analytes, i.e. Y variants, were each diluted in PBST 0.1 buffer at concentrations of 1000, 500, 100, 50 and 10 nM and injected for 5 min, followed by dissociation in running buffer for 3 min. After dissociation, the surfaces were regenerated with one injection of 30 μl 10 mM HCl. Kinetic constants were calculated from the sensorgrams using the Langmuir 1:1 model of Biacore T200 Evaluation software 2.0 (GE Healthcare).
as §1, §2, §3, §4

[2] = Table 2, Ylib001Naive.I selection, MGSSHHHHHHGSS-[Y#####]-ASGSVD, 0.5 mg/ml in PBS, 221 nm, 20-90° C.
[3] = Table 3, mutation study 1, MGSSHHHHHHGSS-[Y#####]
[4] = Table 4, mutation study 2, MGSSHHHHHHGSS-[Y#####]
[5] = Table 2, His6-tagged Y variant, MGSSHHHHHHGSS-[Y#####]-ASGSVD

Y00001: C4 binding Y variant from Ylib001Naive.I, SEQ ID NO:1 (LAEAKEAAIAELDSKGINEAIISKIERAESVEEVEYWKEEILAQLP; Engineered C4 binding Y variant)
Tm [1, 2]: 61 °C
Tm [1, 3]: 57 °C

Y00004: C4 binding Y variant from Ylib001Naive.I, SEQ ID NO:4 (LAEAKEAANAELDSYGVDADLIKKIERAESVEEVEFWKEEILAHLP; Engineered C4 binding Y variant)
Tm [1, 2]: 45 °C

Y00005: C4 binding Y variant from Ylib001Naive.I, SEQ ID NO:5 (LAEAKEAAIAELDSAGVNEVQKSKIEQASSVEEVEFWKEEILAQLP; Engineered C4 binding Y variant)
Tm [1, 2]: 60 °C

Y00006: C4 binding Y variant from Ylib001Naive.I, SEQ ID NO:6 (LAEAKEAAIAELDSYGVVANLKKKIEIAKSVEQVEFWKEEILAQLP; Engineered C4 binding Y variant)
Tm [1, 2]: 49 °C

Y00032: insulin binding Y variant from Ylib001Naive.I, SEQ ID NO:90 (LAEAKEAAIAELDSKGVGAYQKSFIELAKSVEHVELLKEAILADLP; Engineered insulin binding Y variant)
α-helical content / ability to fold into an α-helical structure ([1]; CD spectrum at 20° C.): considerably higher α-helical content; also recorded: good ability to fold into an α-helical structure
Tm [1, 2]: 47 °C
Tm [1, 3]: 49 °C
Tm [1, 4]: 49 °C
pKd (insulin; [5]): 7.30
pKd (insulin; [3]): 7.20

Y00125: insulin binding Y variant, SEQ ID NO:106; differs from Y00032 by N in position 9 (LAEAKEAANAELDSKGVGAYQKSFIELAKSVEHVELLKEAILADLP; Engineered insulin binding Y variant)
Tm [1, 2]: 35 °C
pKd (insulin; [5]): 6.96

Y00262: C4 binding Y variant, Y00001 with S23K, SEQ ID NO:18 (LAEAKEAAIAELDSKGINEAIIKKIERAESVEEVEYWKEEILAQLP; Engineered C4 binding Y variant)
Tm [1, 3]: 61 °C
Tm [1, 4]: 61 °C

Y00263: insulin binding Y variant, Y00032 with D13K, SEQ ID NO:110 (LAEAKEAAIAELKSKGVGAYQKSFIELAKSVEHVELLKEAILADLP; Engineered insulin binding Y variant)
Tm [1, 3]: 43 °C
pKd (insulin; [3]): 6.89

Y00264: insulin binding Y variant, Y00032 with K15Y, SEQ ID NO:111 (LAEAKEAAIAELDSYGVGAYQKSFIELAKSVEHVELLKEAILADLP; Engineered insulin binding Y variant)
Tm [1, 3]: 48 °C
pKd (insulin; [3]): 7.19

Y00265: insulin binding Y variant, Y00032 with V17I, SEQ ID NO:112 (LAEAKEAAIAELDSKGIGAYQKSFIELAKSVEHVELLKEAILADLP; Engineered insulin binding Y variant)
Tm [1, 3]: 47 °C
pKd (insulin; [3]): 6.92

Y00266: insulin binding Y variant, Y00032 with G18S, SEQ ID NO:113 (LAEAKEAAIAELDSKGVSAYQKSFIELAKSVEHVELLKEAILADLP; Engineered insulin binding Y variant)
Tm [1, 3]: 50 °C
pKd (insulin; [3]): 7.25

Y00267: insulin binding Y variant, Y00032 with A19E, SEQ ID NO:114 (LAEAKEAAIAELDSKGVGEYQKSFIELAKSVEHVELLKEAILADLP; Engineered insulin binding Y variant)
Tm [1, 3]: 48 °C
pKd (insulin; [3]): 7.23

Y00268: insulin binding Y variant, Y00032 with K22I, SEQ ID NO:115 (LAEAKEAAIAELDSKGVGAYQISFIELAKSVEHVELLKEAILADLP; Engineered insulin binding Y variant)
Tm [1, 3]: 49 °C
pKd (insulin; [3]): 7.08

Y00269: insulin binding Y variant, Y00032 with S23K, SEQ ID NO:116 (LAEAKEAAIAELDSKGVGAYQKKFIELAKSVEHVELLKEAILADLP; Engineered insulin binding Y variant)
Tm [1, 3]: 50 °C
pKd (insulin; [3]): 6.41

Y00270: insulin binding Y variant, Y00032 with K22I + S23K, SEQ ID NO:117 (LAEAKEAAIAELDSKGVGAYQIKFIELAKSVEHVELLKEAILADLP; Engineered insulin binding Y variant)
Tm [1, 3]: 52 °C
Tm [1, 4]: 52 °C
pKd (insulin; [3]): 7.11

Y00271: insulin binding Y variant, Y00032 with E26Q, SEQ ID NO:118 (LAEAKEAAIAELDSKGVGAYQKSFIQLAKSVEHVELLKEAILADLP; Engineered insulin binding Y variant)
Tm [1, 3]: 49 °C
pKd (insulin; [3]): 7.33

Y00272: insulin binding Y variant, Y00032 with A28G, SEQ ID NO:119 (LAEAKEAAIAELDSKGVGAYQKSFIELGKSVEHVELLKEAILADLP; Engineered insulin binding Y variant)
Tm [1, 3]: 34 °C
pKd (insulin; [3]): 6.96

Y00273: insulin binding Y variant, Y00032 with E32Q, SEQ ID NO:120 (LAEAKEAAIAELDSKGVGAYQKSFIELAKSVQHVELLKEAILADLP; Engineered insulin binding Y variant)
pKd (insulin; [3]): 7.11

Y00274: insulin binding Y variant, Y00032 with E35Q, SEQ ID NO:121 (LAEAKEAAIAELDSKGVGAYQKSFIELAKSVEHVQLLKEAILADLP; Engineered insulin binding Y variant)
Tm [1, 3]: 53 °C
pKd (insulin; [3]): 7.25

Y00282: C4 binding Y variant, Y00262 with I17V, SEQ ID NO:19 (LAEAKEAAIAELDSKGVNEAIIKKIERAESVEEVEYWKEEILAQLP; Engineered C4 binding Y variant)
Tm [1, 4]: 61 °C

Y00283: C4 binding Y variant, Y00262 with N18S, SEQ ID NO:20 (LAEAKEAAIAELDSKGISEAIIKKIERAESVEEVEYWKEEILAQLP; Engineered C4 binding Y variant)
Tm [1, 4]: 61 °C

Y00284: C4 binding Y variant, Y00262 with E19A, SEQ ID NO:21 (LAEAKEAAIAELDSKGINAAIIKKIERAESVEEVEYWKEEILAQLP; Engineered C4 binding Y variant)
Tm [1, 4]: 64 °C

Y00285: C4 binding Y variant, Y00262 with I22K, SEQ ID NO:22 (LAEAKEAAIAELDSKGINEAIKKKIERAESVEEVEYWKEEILAQLP; Engineered C4 binding Y variant)
Tm [1, 4]: 57 °C

Y00286: C4 binding Y variant, Y00262 with E26Q, SEQ ID NO:23 (LAEAKEAAIAELDSKGINEAIIKKIQRAESVEEVEYWKEEILAQLP; Engineered C4 binding Y variant)
Tm [1, 4]: 62 °C

Y00287: C4 binding Y variant, Y00262 with E35Q, SEQ ID NO:24 (LAEAKEAAIAELDSKGINEAIIKKIERAESVEEVQYWKEEILAQLP; Engineered C4 binding Y variant)
Tm [1, 4]: 62 °C

Y00288: C4 binding Y variant, Y00262 with E39Q, SEQ ID NO:25 (LAEAKEAAIAELDSKGINEAIIKKIERAESVEEVEYWKQEILAQLP; Engineered C4 binding Y variant)
Tm [1, 4]: 66 °C

Y00289: C4 binding Y variant, Y00262 with E35Q + E39Q, SEQ ID NO:26 (LAEAKEAAIAELDSKGINEAIIKKIERAESVEEVQYWKQEILAQLP; Engineered C4 binding Y variant)
Tm [1, 4]: 65 °C

Y00290: C4 binding Y variant, Y00262 with E35Q + A43K, SEQ ID NO:27 (LAEAKEAAIAELDSKGINEAIIKKIERAESVEEVQYWKEEILKQLP; Engineered C4 binding Y variant)
Tm [1, 4]: 69 °C

Y00291: C4 binding Y variant, Y00262 with E35Q + E39Q + A43K, SEQ ID NO:28 (LAEAKEAAIAELDSKGINEAIIKKIERAESVEEVQYWKQEILKQLP; Engineered C4 binding Y variant)
Tm [1, 4]: 66 °C
